B1: C13C9 mAb (antibody, V domains shown)
VH: EVQLVQSGPEVKKPGTSARVSCKASGFTSKNTALQWVRQARGQPLEWMGWIDISNYITNYAQKFRGRLTITWDLSASMAYMELSSLRSEDTAVYYCAAVGKDDDVLTGGNKYFDHWGQGTLVTVSS
VL: SYELTQPPSVSVSPGQTARITCSGDALPKKYAYWYQQKSGQAPVLVIHEDDKRPSGIPGRFSASSSGTTATLTISGAQVEDEADYYCYSTDTNDNHAFGSGTKLTVL
notes: also called Group 3 mAb; fusion peptide-specific mAb
B2: VN01H1 mAb (antibody, V domains shown)
VH: EVQLVESGGGLVLPGGSLRLSCSASGFTFSDFSMHWVRQSPGKGLEYVSAITSSGSSTYYPDSVKGRFTISRDNSKNTLYLQMGSLRVEDTAVYWCVKNSDVFRFPHLYFDVWGRGTLVTVSS
VL: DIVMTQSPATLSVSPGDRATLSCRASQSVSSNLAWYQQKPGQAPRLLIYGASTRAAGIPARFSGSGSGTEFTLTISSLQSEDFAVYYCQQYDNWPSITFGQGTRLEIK
notes: as for B1
B3: VP12E7 mAb (antibody, V domains shown)
VH: QVQLVQSGGGVVQPGESLRLSCSGSGFTFNNYIMHWVRQAPGQGLDYVSGIGSDGRNTNYGDSVKGRFTISRDNSKDTLYLQMTSLRAEDTAFYYCVKGLDVLRFLDLSTPSGERLDAFDIWGQGTMVTVSS
VL: DIVMTQSPSFLSASVGDRVTITCRASQGISNYLAWYQQKPGKAPHLLIYAASTLQSGVPSRFSGSGSGTEFTLTISSLQPEDFATYYCQQLNSYPLFTFGPGTKVDIE
notes: as for B1
B4: C77G12 mAb (antibody, V domains shown)
VH: EVQLVESGGGVVQPGRSLRISCAVSGFTFGSYAMHWVRQAPGKGLEWVGVMSSDGHNEYYADSVKGRFTISRDNSRNKLYLEMNNLRVDDTAVFYCARGSDYVDDSPPLHYWGQGTLVTVSS
VL: DIQLTQSPSSLSASIGDRVTITCRASQDIANKLAWFQQAPGKAPKSLIYAASRLQSGVPSQFSGSGSGTDFTLTIESLQAGDFATYFCQQYDSFPFTFGPGTKVDVK
notes: as for B1
B5: C13B8 mAb (antibody, V domains shown)
VH: QVQLQESGPGLVQPSQTLTLTCTVSGDSISNEDYHWTWIRQHPGKGLEWMGYLQYSGNTNYNPSLKSRMTISVDTSKNQFSLRLNSVTAADTAVYFCATSIVLTGMSNKIQPFDYWGQGTLVTVSS
VL: SYELTQPPSVSVSPGQMARITCSGEALPKKYAYWYQQKGGQFPVLVIYKDTERPSGIPERFSGSSSGTIVTLTISGVQPEDEADYYCLSADTSGTWVFGGGTKLTVL
notes: as for B1

The binders below were run against prefusion PentaPro (F817) SARS-CoV-2 S2 (SARS-CoV-2 (Wuhan-Hu-1 assumed), UniProt P0DTC2, stabilised) (assay: ELISA). Conditions: both partners purified.
B1: binds. B2: binds. B3: binds. B4: binds. B5: binds.

Source: publication PMC9348755 (Science (New York, N.y.), 2022)
